Values joined by “and” are separate entries in the source; they are usually repeats but may differ in a detail not shown here. Equal values may be shown once.
Assays:
[1] = biological target: T1, cleaved high molecular weight kininogen (HMWK) (human, UniProt P01042 19-380; P01042 390-644); experiment: sandwich ELISA with coated Fab; value = C, midpoint of the printed 4-P fit; 2-chain HMWK spiked into HMWK-deficient plasma, analysed in 2.5% plasma
T1 construct: also called cleaved HMWK; 2-chain HMWK
T1 sequence 1: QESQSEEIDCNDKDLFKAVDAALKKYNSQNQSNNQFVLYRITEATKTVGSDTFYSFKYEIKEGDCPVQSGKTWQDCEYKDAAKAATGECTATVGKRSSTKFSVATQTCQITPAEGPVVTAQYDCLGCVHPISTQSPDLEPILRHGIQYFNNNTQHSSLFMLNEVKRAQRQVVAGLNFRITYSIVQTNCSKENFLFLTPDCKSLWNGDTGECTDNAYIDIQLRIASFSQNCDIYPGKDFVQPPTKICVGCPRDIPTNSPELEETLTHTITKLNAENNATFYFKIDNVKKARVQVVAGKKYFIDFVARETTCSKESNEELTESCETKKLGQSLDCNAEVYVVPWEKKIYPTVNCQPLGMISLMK
T1 sequence 2: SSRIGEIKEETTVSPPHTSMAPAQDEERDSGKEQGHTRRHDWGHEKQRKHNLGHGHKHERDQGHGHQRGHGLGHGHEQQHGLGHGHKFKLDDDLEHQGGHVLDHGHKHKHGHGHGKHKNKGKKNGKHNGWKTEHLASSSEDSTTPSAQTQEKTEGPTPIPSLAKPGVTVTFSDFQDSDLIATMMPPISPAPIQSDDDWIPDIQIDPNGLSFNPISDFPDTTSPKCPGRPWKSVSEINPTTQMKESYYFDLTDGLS
Description: (§1) Purified cleaved HMWK was spiked into SBT assay buffer (open circles), SBT assay buffer and analyzed in the presence of 10% plasma (squares), or HMWK-deficient plasma and analyzed in the presence of 10% plasma (triangles). Purified cleaved HMWK was also spiked into assay buffer and analyzed in the presence of 2.5% plasma (diamonds) or HMWK deficient plasma and analyzed in the presence of 2.5% plasma (closed circles). The y-axis presents the ELISA signal in absorbance units, and the x-axis presents the concentration of kininogen in μg/mL.
(§2) The following day, the plate was washed and then blocked with 2% BSA (Protease/IgG free) in PBS buffer. Following a wash, samples containing cleaved HMWK in 0.1% BSA buffer in PBS with 0.05% Tween-20 (2-Chain HMWK assay buffer). Purified protein standards (e.g., 2-chain HMWK, intact HMWK or LMWK) were spiked into HMWK-deficient plasma and diluted 1:320 in 2-chain HMWK assay buffer. Following plate washing with PBST, a mixture of 2 mouse monoclonal antibodies (11H05 and 13B12) at 1 μg/mL in 2-chain HMWK assay buffer were added for 1 hour at room temperature. […] Signal was detected by the addition of 3,3′,5,5′-tetramethylbenzidine (TMB), an HRP substrate. […] Hydrolysis of a TMB substrate was detected using a microplate reader at 450 nm-630 nm (FIG. 3). […] Using these immunoassay conditions, specifically binding to cleaved HMWK was detected.

[2] = biological target: T1, cleaved high molecular weight kininogen …; experiment: sandwich ELISA with coated Fab; value = C, midpoint of the printed 4-P fit; 2-chain HMWK spiked into SBT buffer, analysed in 10% plasma
Description: as §1, §2

[3] = biological target: T1, cleaved high molecular weight kininogen …; experiment: optimized sandwich ELISA: M004-B04 capture, detection 11H05 + 13B12; value = C, midpoint of the printed 4-P fit; in-well concentration
Description: (§3) The following day, the plate was washed and then blocked with 2% BSA (Protease/IgG free) in PBS buffer. Following a wash, samples containing cleaved HMWK in 0.1% BSA buffer in PBS with 0.05% Tween-20 (2-Chain HMWK assay buffer). Purified protein standards (e.g., 2-chain HMWK, intact HMWK or LMWK) were spiked into HMWK-deficient plasma and diluted 1:320 in 2-chain HMWK assay buffer. Following plate washing with PBST, a mixture of 2 mouse monoclonal antibodies (11H05 and 13B12) at 1 μg/mL in 2-chain HMWK assay buffer were added for 1 hour at room temperature. Unbound detection antibodies were washed and a 1:2000 dilution of goat anti-mouse secondary antibody conjugated to horseradish peroxidase (HRP) was added. The assay containing the secondary antibody was incubated for 1 hour at room temperature, and unbound secondary antibody was removed by washing with 2-chain HMWK assay buffer. Signal was detected by the addition of 3,3′,5,5′-tetramethylbenzidine (TMB), an HRP substrate. The reaction was stopped with phosphoric acid. Hydrolysis of a TMB substrate was detected using a microplate reader at 450 nm-630 nm (FIG. 3). […] Using these immunoassay conditions, specifically binding to cleaved HMWK was detected.

[4] = biological target: T1, cleaved high molecular weight kininogen …; experiment: ELISA on coated M004-B04, 2-chain HMWK (in deficient plasma, diluted) titrated, no peptide (control); value = C, midpoint of the printed 4-P fit
Description: as §3, with “Following” for “The following day, the plate was washed and then blocked with 2% BSA (Protease/IgG free) in PBS buffer. Following a wash, samples containing cleaved HMWK in 0.1% BSA buffer in PBS with 0.05% Tween-20 (2-Chain HMWK assay buffer). Purified protein standards (e.g., 2-chain HMWK, intact HMWK or LMWK) were spiked into HMWK-deficient plasma and diluted 1:320 in 2-chain HMWK assay buffer. Following”
To perform the assay, the kininogen peptides were diluted to 250 μg/mL and allowed to preincubate on assay plate. Then, purified 2-chain HMWK in deficient human plasma was diluted 160 and then added to plate.

[5] = biological target: T1, cleaved high molecular weight kininogen …; experiment: sandwich ELISA with coated Fab; value = C, midpoint of the printed 4-P fit; 2-chain HMWK spiked into HMWK-deficient plasma, analysed in 10% plasma
Description: as §1, §2

EC50 [1]: 184 µg/mL | EC50 [2]: 184 µg/mL | EC50 [3]: 0.00902 µg/mL and 0.0207 µg/mL and 0.0116 µg/mL | EC50 [4]: 0.0123 µg/mL | EC50 [5]: 165 µg/mL
B1: 559B-M0004-B04 (Fab, V domains shown)
VH: EVQLLESGGGLVQPGGSLRLSCAASGFTFSFYVMVWVRQAPGKGLEWVSGISPSGGNTAYADSVKGRFTISRDNSKNTLYLQMNSLRAEDTAVYYCARKLFYYDDTKGYFDFWGQGTLVTVSS
VL: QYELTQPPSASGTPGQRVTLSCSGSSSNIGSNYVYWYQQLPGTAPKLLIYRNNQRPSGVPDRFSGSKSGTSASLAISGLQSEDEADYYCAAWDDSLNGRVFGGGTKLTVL
notes: also called M004-B04
